# Assay: label from the status in PepcDB records
row,Sequence,protein production
1,MQTLREFTRKTKRGNILKIVREHYLRDDIGCGSELCRECFQNEVYQLTSQHANKSTLFKFPHYLVLDTNVVLDQIDVLEEDVLRNVVVLTTVLNEVKHRSSAIYKRFNEIVHDRTRNFYVFVNEHHKETYADREPDETANDRNDRAIRLATKWYDDHLQASQSSKEFERSGKAATRVVLLTDDAANRAKAEAEGILVTTAAEYVKSLEDFPLLMDKLSHKTFDSEKNGLPQYPPHLSMKELLEGLRQNKLLQGTFQASRENYLEGTVNVEKFEKGILIQGRESLNRAVDGDLVAVELLPEAEWSAPSEIVLEEKNVYADEVPSEERAKDENEMLNQVRAAALSAERTPTGRIVGIVRRKWRQYCGILQPSLIEDTNRHIFVPADRKIPRIRIETRQAAMLQNQRIIVTIDTWPRNSRYPHGHFVRSLGPLGDMATENEVILLEHDVPHCKFSDEVLSFLPKMPWTITDEDYSKRVDLRDLYICSVDPPGCTDIDDALHCKELPNGNLEVGVHIADVSHFIRPGNALDMEAAARGTTVYLVGKRIDMVPELLSSNLCSLVGGVERFAFSCVWEVDNEANVLSKRFHKSVIKSKRAMTYEEAQNIIDDATQQNEIAKSLRNLNRLAKILKKRRMDNGALVLASPEIRFQVDSETHEPLEVEVKQMRETNSMVEEFMLLANITVAEHIATEFSECAVLRRHPRPPPTNFDPLVKSARYQGFQVDINSGLELSHSLDKCVKADNPYFNTMIRILTTRCMMQAVYFISGSLQKEEFFHYGLAAPIYTHFTSPIRRYSDIMVHRLLAASIGADSTYAQLLDRKSNEELCHNLNYRHKMAQYAGRASVALNTHLFFRGKEEDEEGYVLFVRKNALQVLIPKYGLEGTLYLKSDKDGKDGVERVKSEIVFTFNEEDHTQRCGDVVFHSFDPVTVRLSLDSSNVQHEKLIFRLVKPYIKGFSVETTTEGTDSQAVSAAPPSKKTKKDKKKK,failed
2,MQTNLLSRPTSAKSTSMSDKINHPQLCQWLESVAISRDKQAFTHLFQFFAPKILRIARGKFPNEAQANEVVQDTMSNVWRKAHLYNQDKGAATTWVYTVMRNVTFDMLRKIQGNKEDNLSDDIWPIAESMSIENEIFDDHLEHANLLSVIEELPQAQQDVVKGFYFREMSQEQLAVHLHLPLGTVKSRLRLALGKLKVQLGEKHD,failed
3,MQTPPRLVAIGGLSGSGKTTIAEALAAHVGAPPGARIVESDRIRKAMHGVPAETRLPDNAYRPDVSDRVYNEMTWRAGLILSEGGSVVADAVFDRPADRERIEKAARDRGIPFFGFWLEADPLVLWQRVSERKGGPSDATVDILSRQLQRKAGLEHHHHHH,failed
4,MQTQLTEEMRQNARALEADSILRACVHCGFCTATCPTYQLLGDELDGPRGRIYLIKQVLEGNEVTLKTQEHLDRCLTCRNCETTCPSGVRYHNLLDIGRDIVEQKVKRPLPERILREGLRQVVPRPAVFRALTQVGLVLRPFLPEQVRAKLPAETVKAKPRPPLRHKRRVLMLEGCAQPTLSPNTNAATARVLDRLGISVMPANEAGCCGAVDYHLNAQEKGLARARNNIDAWWPAIEAGAEAILQTASGCGAFVKEYGQMLKNDALYADKARQVSELAVDLVELLREEPLEKLAIRGDKKLAFHCPCTLQHAQKLNGEVEKVLLRLGFTLTDVPDSHLCCGSAGTYALTHPDLARQLRDNKMNALESGKPEMIVTANIGCQTHLASAGRTSVRHWIEIVEQALEKE,failed
5,MQVEETSIEEIQTKIKRLNSKAGQMKMDLHDLAEGLPTDYTQLMDVAAATYEIYRQLDELKQELKKLENAK,failed
6,MQVHYYGGTAEAAGTSEETVETPTGLSVNQLLDHLRNLHPGLGRLLGVCTLFVDGSAVRGEQIVPARAQVEVLPPFAGG,failed
7,MQVIKQKLTATCAQLTGYLHQPDTNAHQTNLPAIIIVPGGSYTHIPVAQAESLAMAFAGHGYQAFYLEYTLLTDQQPLGLAPVLDLGRAVNLLRQHAAEWHIDPQQITPAGFSVGGHIVALYNDYWATRVATELNVTPAMLKPNNVVLGYPVISPLLGFPKDDATLATWTPTPNELAADQHVNSDNQPTFIWTTADDPIVPATNTLAYATALATAKIPYELHVFKHGPHGLALANAQTAWKPDANQPHVAHWLTLALEWLADNR,not failed
8,MQVLVVGANGQVGRLLMQQLLAAGDTPVAGLKPTEDGEEWADQGLMVCKMDLLAKPEQLASAIMGMDAVIFAAGSGGQTKADMTLLIDLDGAVKTMQAAEIAGVSRFLMISMLFAEDRNRWADPLKPLYVAKFYADNWLVRQTHLDYTIVQPGALSFHAGTGLIKSDPLAVGSVPRADLAAFLVAALHAPQTIGKTIPLLSGDQSIAQVIDQL,failed

# Reference: a protein production outcome set (Wang et al. 2014)
